Consider one molecule from paper PMC12464775, “Selective and Potent Peptide Binders of RNF43 for Wnt Signaling Inhibition” (ACS Central Science, 2025).

The experiment concerns the target T1, extracellular domain (ECD) of the human RNF43 protein, biotinylated, Q68DV7.
T1 chain: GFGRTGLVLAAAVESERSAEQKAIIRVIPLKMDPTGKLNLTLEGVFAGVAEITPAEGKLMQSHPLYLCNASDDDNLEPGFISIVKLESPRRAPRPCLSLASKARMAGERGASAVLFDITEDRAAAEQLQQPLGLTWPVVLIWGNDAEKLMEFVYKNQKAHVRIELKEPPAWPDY
As to the kind of experiment: SPR. Conditions: chain shown with the change;; parent: 1.1 ± 0.07 nM.

B1: GUR-1.6.12.2 Y13A (peptide)
chain: EQCTSTQDLCHDASHVCCWPLDCRWAVKYQWFWDCIG
As a reminder, the Kd is the concentration at which binding is half-saturated. As for B1, the Kd came to 36 nM.
